How the values were obtained:
[1] = NfsB-GDH coupled cycling assay; assay type: biochemical; details: NMN^+
Procedure: (§1) Coupled enzymatic biotransformation. All biotransformation reactions were performed in buffer A at 30° C. for 24 hours. Reaction buffer A, modified from that disclosed in Chaparro-Riggers et al., Advanced Synthesis & Catalysis 349(8-9):1521-1531 (2007)), contained 200 mM potassium phosphate buffer (pH 7.5), 1 M NaCl, 300 mM D-glucose, 6 mM NMN^+ (or NADP^+ as the positive control), and substrates. All assays were performed in triplicate, with no proteins or no cofactors added as negative controls. The protein loading for GDH variants was kept at 0.33 mg mL^−1 or 11.7 μM. The various enzymes for biotransformation reactions were added at the concentration of 0.75 mg mL^−1.
(§2) For XenA-GDH coupled cycling assays, the substrates ketoisophorone, citral, or trans-2-hexen-1-al were added at 33 mM, 10 mM, or 50 mM, respectively. […] Conversion was determined via GC-FID with octanol as an internal standard (see below). […] Nitrofurazone conversion was measured spectroscopically at 400 nm and quantification was performed using a standard curve. The initial levels of the above-mentioned substrates were mainly determined by their solubility in the assay buffer. […] The reduction of cytochrome c was measured spectroscopically at 550 nm. and the quantification was performed using extinction coefficient ε550 of 21.1 mM^−1 cm^−1.

cytochrome c = test: BM3-GDH coupled cycling assay; assay type: biochemical; details: BM3 W1046S, NMNH generated in situ
Procedure: as §1, §2

[2] = GDH enzymatic assay with NAD^+ as cofactor; assay type: biochemical; details: for decrease of catalytic efficiency on NAD^+: versus wild type
Procedure: (§3) GDH enzymatic assays. The GDH activity was measured as described in Hilt et al. (Biochimica et biophysica acta 1076(2):298-304 (1991)). The reactions were started by adding the purified protein to the assay mixture containing 35 mM Tris-HCl buffer (pH 8.0), 3 mM NAD^+, NADP^+ or NMN^+ and 140 mM glucose. The absorbance variation at 340 nm was detected by a spectrophotometer at 25° C.

[3] = OYE3-GDH coupled cycling assay; assay type: biochemical; details: OYE3, NMN^+
Procedure: as §1, §2

[4] = GDH total turnover number (TTN) determination; assay type: biochemical; details: NMN^+, GDH 0.47 μM, 33 mM ketoisophorone, 96 hours
Procedure: GDH Total Turnover Number (TTN) Determination. Total turnover number (TTN) was determined by the number of moles of product formed divided by the moles of purified GDH added. The assays were performed in reaction buffer A, as shown above, at 30° C. Ketoisophorone (33 mM) was used as the substrate. The reaction was started by spiking purified proteins (0.0132 mg mL^−1 or 0.47 μM for GDH, 0.75 mg mL^−1 for XenA). Samples were taken every 12 hours for 96 hours. The extraction and GC-FID analysis were performed using a similar method as mentioned above.

[5] = XenA-GDH coupled cycling assay, citral; assay type: biochemical; details: 10 mM citral, 24 hours, NMN^+
Procedure: as §1, §2

[6] = XenA-GDH coupled cycling biotransformation of ketoisophorone to levodione; assay type: biochemical
Procedure: as §1
For XenA-GDH coupled cycling assays, the substrates ketoisophorone, citral, or trans-2-hexen-1-al were added at 33 mM, 10 mM, or 50 mM, respectively. For the OYE3-GDH coupled cycling assays, the substrate 4-phenyl-3-butyn-2-one was added at 5 mM. At various time points over 24 hours, 100 μL samples were taken and extracted with 100 μL ethyl acetate. Conversion was determined via GC-FID with octanol as an internal standard (see below). For NfsB-GDH coupled cycling assays, 2 mM nitrofurazone was used as the substrate. Nitrofurazone conversion was measured spectroscopically at 400 nm and quantification was performed using a standard curve. The initial levels of the above-mentioned substrates were mainly determined by their solubility in the assay buffer. For BM3-GDH coupled cycling assays, 50 μM cytochrome c (C2506 Sigma) was used as the substrate. The reduction of cytochrome c was measured spectroscopically at 550 nm. and the quantification was performed using extinction coefficient ε550 of 21.1 mM^−1 cm^−1.
Coupled cycling conditions: All biotransformation reactions were performed in buffer A at 30° C. for 24 hours. Reaction buffer A contained 200 mM potassium phosphate buffer (pH 7.5), 1 M NaCl, 300 mM D-glucose, 6 mM NMN^+. Substrate ketoisophorone was added at 5 g/L. At various time points over 24 hours, 100 μL samples were taken and extracted with 100 μL ethyl acetate. Conversion was determined via GC-FID with octanol as an internal standard (see below).

[7] = XenA-GDH coupled cycling assay, trans-2-hexen-1-al; assay type: biochemical; details: 50 mM, 24 hours, NMN^+
Procedure: as §1, §2

[8] = GDH enzymatic assay with NMN^+ as cofactor; assay type: biochemical; details: for overall specificity switch towards NMN^+ from NADP^+ / overall specificity switch towards NMN^+ from NAD^+: compared to wild type
Procedure: as §3

[9] = GDH enzymatic assay with NADP^+ as cofactor; assay type: biochemical; details: for decrease of catalytic efficiency on NADP^+: versus wild type
Procedure: as §3

[10] = Protein expression levels of GDH variants; design: species or system Escherichia coli; details: expressed in E. coli
Procedure: Proteins were purified as 6×His tag fusion at the N-terminus. E. coli BL21 (DE3) with plasmids were inoculated into LB medium with 200 mg L^−1 ampicillin. Cells were induced with 0.5 mM IPTG and expressed for 24 hours at 30° C. with shaking at 250 rpm. BM3 cytochrome P450 was extracted with the EMD Millipore™ BugBuste Plus Lysonase Kit and purified using the HisPur™ Ni-NTA Superflow Purification System according to the manufacturer's instructions. Other proteins were purified using His-Spin Protein Miniprep kit (Zymo Research Corporation, CA). The purified proteins were quantified by Bradford assay.

B1: I195R-A93K-Y39Q: Bs GDH with I195R, A93K, Y39Q substitutions (SEQ ID NO:6) (protein)
chain: MYPDLKGKVVAITGAASGLGKAMAIRFGKEQAKVVINYQSNKQDPNEVKEEVIKAGGEAVVVQGDVTKEEDVKNIVQTAIKEFGTLDIMINNKGLENPVPSHEMPLKDWDKVIGTNLTGAFLGSREAIKYFVENDIKGNVINMSSVHEVIPWPLFVHYAASKGGIKLMTETLALEYAPKGIRVNNIGPGAINTPRNAEKFADPKQKADVESMIPMGYIGEPEEIAAVAAWLASKEASYVTGITLFADGGMTQYPSFQAGRG
modifications: I195R A93K Y39Q mutant GDH coding sequence
conversion of nitrofurazone [1]: ~92%
conversion (reduction) of cytochrome c (cytochrome c): > 99%
Kcat ([2]; cofactor NAD^+): 0.41 ± 0.026 s⁻¹
Km ([2]; cofactor NAD^+): 3.7 ± 0.93 mM
decrease of catalytic efficiency on NAD^+ [2]: 38 fold
decrease of catalytic efficiency on NAD^+ ([2]; listed as GDH Triple): 1,600 fold
conversion of 4-phenyl-3-butyne-2-one [3]: > 99%
total turnover number (TTN) [4]: 39,000
conversion of citral [5]: ~76%
initial productivity of levodione ([6]; NMN^+ as cycling cofactor, XenA in excess, GDH 11.7 μM): ~1.15 µM/s
initial turnover frequency ([6]; NMN^+, Bs GDH loading 11.7 μM): ~0.10 s⁻¹
improvement of NMN^+-dependent productivity ([6]; versus wild type Bs GDH): 22 fold
conversion of trans-2-hexen-1-al [7]: ~49%
increase in catalytic efficiency over the wild-type enzyme towards NMN^+ [8]: 1,000 fold
improvement in catalytic efficiency over I195R ([8]; NMN^+): 4 fold
Kcat ([8]; cofactor NMN^+): 3.1 ± 0.037 s⁻¹
Km ([8]; cofactor NMN^+): 6.1 ± 0.83 mM
overall specificity switch towards NMN^+ from NADP^+ [8]: 1,600,000 fold
overall specificity switch towards NMN^+ from NAD^+ [8]: 38,000 fold
overall specificity switch towards NMN^+ from NADP^+ ([8]; listed as GDH Triple): 38,000 fold
overall specificity switch towards NMN^+ from NAD^+ ([8]; listed as GDH Triple): 1,600,000 fold
Kcat ([9]; cofactor NADP^+): 4.4 ± 0.034 s⁻¹
Km ([9]; cofactor NADP^+): 0.61 ± 0.15 mM
decrease of catalytic efficiency on NADP^+ [9]: 1,600 fold
decrease of catalytic efficiency on NADP^+ ([9]; listed as GDH Triple): 38 fold
Expression level [10]: 25.37 μg protein/ml culture
